# Results taken from publication PMC10397247.
# Legend:
# 4H3855-bN = target: T1, 4H3855-bN; experiment: two-hybrid library CCNG1;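 note: natural log of median RNA to DNA barcode read ratio; higher means stronger binding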
# T1 chain: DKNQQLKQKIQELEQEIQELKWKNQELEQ
# 4H754-bN = target: T2, 4H754-bN; experiment: two-hybrid library CCNG1;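 note: natural log of median RNA to DNA barcode read ratio; higher means stronger binding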
# T2 chain: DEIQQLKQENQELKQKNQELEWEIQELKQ
# 4H717-bN = target: T3, 4H717-bN; experiment: two-hybrid library CCNG1;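 note: natural log of median RNA to DNA barcode read ratio; higher means stronger binding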
# T3 chain: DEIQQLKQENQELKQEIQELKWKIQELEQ
# 4H3843-bN = target: T4, 4H3843-bN; experiment: two-hybrid library CCNG1;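 note: natural log of median RNA to DNA barcode read ratio; higher means stronger binding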
# T4 chain: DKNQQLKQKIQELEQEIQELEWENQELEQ
# 4H607-bN = target: T5, 4H607-bN; experiment: two-hybrid library CCNG1;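 note: natural log of median RNA to DNA barcode read ratio; higher means stronger binding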
# T5 chain: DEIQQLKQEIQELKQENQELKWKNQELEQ
# 4H883-bN = target: T6, 4H883-bN; experiment: two-hybrid library CCNG1;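 note: natural log of median RNA to DNA barcode read ratio; higher means stronger binding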
# T6 chain: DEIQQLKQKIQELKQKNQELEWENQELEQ
# 4H953-bN = target: T7, 4H953-bN; experiment: two-hybrid library CCNG1
# T7 chain: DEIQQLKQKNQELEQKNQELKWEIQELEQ
# 4H797-bN = target: T8, 4H797-bN; experiment: two-hybrid library CCNG1
# T8 chain: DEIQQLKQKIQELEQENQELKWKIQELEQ
# 4H462-bN = target: T9, 4H462-bN; experiment: two-hybrid library CCNG1
# T9 chain: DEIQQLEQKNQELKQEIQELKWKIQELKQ
# 4H454-bN = target: T10, 4H454-bN; experiment: two-hybrid library CCNG1
# T10 chain: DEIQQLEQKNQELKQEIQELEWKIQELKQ
# 4H687-bN = target: T11, 4H687-bN; experiment: two-hybrid library CCNG1
# T11 chain: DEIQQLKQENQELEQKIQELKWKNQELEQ
# 4H918-bN = target: T12, 4H918-bN; experiment: two-hybrid library CCNG1
# T12 chain: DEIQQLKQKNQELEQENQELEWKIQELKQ
# 4H72-bN = target: T13, 4H72-bN; experiment: two-hybrid library CCNG1
# T13 chain: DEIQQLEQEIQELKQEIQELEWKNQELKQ
# 4H3782-bN = target: T14, 4H3782-bN; experiment: two-hybrid library CCNG1
# T14 chain: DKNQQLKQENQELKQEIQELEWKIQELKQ
# 4H568-bN = target: T15, 4H568-bN; experiment: two-hybrid library CCNG1
# T15 chain: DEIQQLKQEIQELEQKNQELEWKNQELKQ
# 4H4001-bN = target: T16, 4H4001-bN; experiment: two-hybrid library CCNG1
# T16 chain: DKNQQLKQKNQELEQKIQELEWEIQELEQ
# 4H967-bN = target: T17, 4H967-bN; experiment: two-hybrid library CCNG1
# T17 chain: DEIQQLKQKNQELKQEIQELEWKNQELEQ
# 4H908-bN = target: T18, 4H908-bN; experiment: two-hybrid library CCNG1
# T18 chain: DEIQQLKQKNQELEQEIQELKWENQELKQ
# 4H2617-AA = target: T19, 4H2617-AA; experiment: two-hybrid library CCmax; details: mean of both orientations
# T19 chain: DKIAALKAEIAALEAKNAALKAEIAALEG
# 4H605-AA = target: T20, 4H605-AA; experiment: two-hybrid library CCmax; details: mean of both orientations
# T20 chain: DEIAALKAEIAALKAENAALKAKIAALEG
# 4H993-AA = target: T21, 4H993-AA; experiment: two-hybrid library CCmax; details: mean of both orientations
# T21 chain: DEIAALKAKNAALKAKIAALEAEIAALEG
# 4H2575-AA = target: T22, 4H2575-AA; experiment: two-hybrid library CCmax; details: mean of both orientations
# T22 chain: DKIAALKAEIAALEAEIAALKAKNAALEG
# 4H678-AA = target: T23, 4H678-AA; experiment: two-hybrid library CCmax; details: mean of both orientations
# T23 chain: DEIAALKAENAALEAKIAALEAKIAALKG
# 4H3921-AA = target: T24, 4H3921-AA; experiment: two-hybrid library CCmax; details: mean of both orientations
# T24 chain: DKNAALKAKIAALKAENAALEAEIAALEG
# 4H335-AA = target: T25, 4H335-AA; experiment: two-hybrid library CCmax
# T25 chain: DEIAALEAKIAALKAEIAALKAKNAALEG
# 4H3112-AA = target: T26, 4H3112-AA; experiment: two-hybrid library CCmax; details: mean of both orientations
# T26 chain: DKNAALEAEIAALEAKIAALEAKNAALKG
# 4H3343-AA = target: T27, 4H3343-AA; experiment: two-hybrid library CCmax; details: mean of both orientations
# T27 chain: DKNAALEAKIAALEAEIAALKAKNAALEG
# 4H2883-AA = target: T28, 4H2883-AA; experiment: two-hybrid library CCmax; details: mean of both orientations
# T28 chain: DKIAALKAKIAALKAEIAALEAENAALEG
# 4H3655-AA = target: T29, 4H3655-AA; experiment: two-hybrid library CCmax; details: mean of both orientations
# T29 chain: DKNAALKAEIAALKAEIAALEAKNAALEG
# 4H780-AA = target: T30, 4H780-AA; experiment: two-hybrid library CCmax; details: mean of both orientations
# T30 chain: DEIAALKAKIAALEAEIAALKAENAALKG
# 4H2729-AA = target: T31, 4H2729-AA; experiment: two-hybrid library CCmax; details: mean of both orientations
# T31 chain: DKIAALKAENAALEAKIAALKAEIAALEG
# 4H566-AA = target: T32, 4H566-AA; experiment: two-hybrid library CCmax; details: mean of both orientations
# T32 chain: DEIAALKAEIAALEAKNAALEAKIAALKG
# 4H429-AA = target: T33, 4H429-AA; experiment: two-hybrid library CCmax; details: mean of both orientations
# T33 chain: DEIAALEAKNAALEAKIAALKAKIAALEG
# 4H2505-AA = target: T34, 4H2505-AA; experiment: two-hybrid library CCmax; details: mean of both orientations
# T34 chain: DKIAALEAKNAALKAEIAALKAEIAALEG
# 4H717-AA = target: T35, 4H717-AA; experiment: two-hybrid library CCmax; details: mean of both orientations
# T35 chain: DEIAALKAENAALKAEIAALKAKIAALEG
# 4H48-AA = target: T36, 4H48-AA; experiment: two-hybrid library CCmax; details: mean of both orientations
# T36 chain: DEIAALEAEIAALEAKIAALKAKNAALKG
# 4H2949-AA = target: T37, 4H2949-AA; experiment: two-hybrid library CCmax; details: mean of both orientations
# T37 chain: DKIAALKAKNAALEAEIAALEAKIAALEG
# 4H317-AA = target: T38, 4H317-AA; experiment: two-hybrid library CCmax; details: mean of both orientations
# T38 chain: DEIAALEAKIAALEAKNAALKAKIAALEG
# 4H342-AA = target: T39, 4H342-AA; experiment: two-hybrid library CCmax
# T39 chain: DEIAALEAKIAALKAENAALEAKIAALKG
# 4H2466-AA = target: T40, 4H2466-AA; experiment: two-hybrid library CCmax; details: mean of both orientations
# T40 chain: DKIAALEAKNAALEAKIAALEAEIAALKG
# 4H794-AA = target: T41, 4H794-AA; experiment: two-hybrid library CCmax; details: mean of both orientations
# T41 chain: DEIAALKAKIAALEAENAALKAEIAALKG
# 4H3606-AA = target: T42, 4H3606-AA; experiment: two-hybrid library CCmax; details: mean of both orientations
# T42 chain: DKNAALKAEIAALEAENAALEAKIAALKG
# 4H2642-AA = target: T43, 4H2642-AA; experiment: two-hybrid library CCmax; details: mean of both orientations
# T43 chain: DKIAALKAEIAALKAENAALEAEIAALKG
# 4H2754-AA = target: T44, 4H2754-AA; experiment: two-hybrid library CCmax; details: mean of both orientations
# T44 chain: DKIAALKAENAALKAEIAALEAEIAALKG
# 4H2944-AA = target: T45, 4H2944-AA; experiment: two-hybrid library CCmax; details: mean of both orientations
# T45 chain: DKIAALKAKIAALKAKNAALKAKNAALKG
# 4H234-AA = target: T46, 4H234-AA; experiment: two-hybrid library CCmax
# T46 chain: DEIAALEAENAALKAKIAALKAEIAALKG
# 4H2837-AA = target: T47, 4H2837-AA; experiment: two-hybrid library CCmax; details: mean of both orientations
# T47 chain: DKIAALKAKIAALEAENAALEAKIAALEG
# 4H906-AA = target: T48, 4H906-AA; experiment: two-hybrid library CCmax; details: mean of both orientations
# T48 chain: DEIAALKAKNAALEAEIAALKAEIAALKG
# 4H3627-AA = target: T49, 4H3627-AA; experiment: two-hybrid library CCmax; details: mean of both orientations
# T49 chain: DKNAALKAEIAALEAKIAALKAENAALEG
# 4H881-AA = target: T50, 4H881-AA; experiment: two-hybrid library CCmax; details: mean of both orientations
# T50 chain: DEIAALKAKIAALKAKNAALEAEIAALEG
# 4H3844-AA = target: T51, 4H3844-AA; experiment: two-hybrid library CCmax; details: mean of both orientations
# T51 chain: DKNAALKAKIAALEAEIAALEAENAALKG
# 4H2354-AA = target: T52, 4H2354-AA; experiment: two-hybrid library CCmax; details: mean of both orientations
# T52 chain: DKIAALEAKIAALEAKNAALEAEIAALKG
# 4H2393-AA = target: T53, 4H2393-AA; experiment: two-hybrid library CCmax; details: mean of both orientations
# T53 chain: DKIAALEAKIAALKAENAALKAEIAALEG
# 4H3427-AA = target: T54, 4H3427-AA; experiment: two-hybrid library CCmax; details: mean of both orientations
# T54 chain: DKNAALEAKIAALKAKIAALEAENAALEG
# 4H454-AA = target: T55, 4H454-AA; experiment: two-hybrid library CCmax; details: mean of both orientations
# T55 chain: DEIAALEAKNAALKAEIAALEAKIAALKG
binder,measurement,setting,value
DKNQQLKQENQELKQEIQELEWKIQELKQ [4H3782-bN],interaction score,4H3855-bN,-1.08
same,interaction score,4H754-bN,0.109
same,interaction score,4H717-bN,-0.43
same,interaction score,4H3843-bN,0.479
same,interaction score,4H607-bN,-0.461
same,interaction score,4H883-bN,-1.27
same,interaction score,4H953-bN,-0.576
same,interaction score,4H797-bN,0.0484
same,interaction score,4H462-bN,0.194
same,interaction score,4H454-bN,-0.771
same,interaction score,4H687-bN,0.28
same,interaction score,4H918-bN,-0.56
same,interaction score,4H72-bN,-0.393
same,interaction score,4H3782-bN,-1.91
same,interaction score,4H568-bN,-0.456
same,interaction score,4H4001-bN,0.0598
same,interaction score,4H967-bN,-0.314
same,interaction score,4H908-bN,0.273
DEIAALEAENAALKAKIAALKAEIAALKG [4H234-AA],interaction score,4H2617-AA,-1.32
same,interaction score,4H605-AA,-1.45
same,interaction score,4H993-AA,1.77
same,interaction score,4H2575-AA,-0.746
same,interaction score,4H678-AA,1.31
same,interaction score,4H3921-AA,0.388
same,interaction score,4H335-AA,-1.24
same,interaction score,4H3112-AA,-1.22
same,interaction score,4H3343-AA,-0.996
same,interaction score,4H2883-AA,-1.27
same,interaction score,4H3655-AA,-0.983
same,interaction score,4H780-AA,-1.42
same,interaction score,4H2729-AA,1.8
same,interaction score,4H566-AA,0.581
same,interaction score,4H429-AA,-1.25
same,interaction score,4H2505-AA,1.67
same,interaction score,4H717-AA,0.359
same,interaction score,4H48-AA,-0.786
same,interaction score,4H2949-AA,1.73
same,interaction score,4H317-AA,-1.11
same,interaction score,4H342-AA,0.11
same,interaction score,4H2466-AA,-0.379
same,interaction score,4H794-AA,-1.24
same,interaction score,4H3606-AA,-0.346
same,interaction score,4H2642-AA,0.56
same,interaction score,4H2754-AA,2.04
same,interaction score,4H2944-AA,-1.71
same,interaction score,4H234-AA,1.91
same,interaction score,4H2837-AA,-1.08
same,interaction score,4H906-AA,0.324
same,interaction score,4H3627-AA,-0.624
same,interaction score,4H881-AA,-1.05
same,interaction score,4H3844-AA,-1.28
same,interaction score,4H2354-AA,-0.425
same,interaction score,4H2393-AA,0.577
same,interaction score,4H3427-AA,-1.32
same,interaction score,4H454-AA,1.79
DKNQQLKQKIQELEQEIQELEWENQELEQ [4H3843-bN],interaction score,4H3843-bN,-1.58
same,interaction score,4H607-bN,-1.31
same,interaction score,4H883-bN,-0.63
same,interaction score,4H953-bN,-2.09
same,interaction score,4H797-bN,-0.609
same,interaction score,4H462-bN,-0.816
same,interaction score,4H687-bN,-1.56
same,interaction score,4H918-bN,-1.05
same,interaction score,4H72-bN,-1.71
same,interaction score,4H568-bN,-0.869
same,interaction score,4H4001-bN,-1.28
same,interaction score,4H967-bN,-1.23
